According to US20190300613A1 (TUSK THERAPEUTICS, published 2019):
One block for each binder: values may come before it.

Key:
[1] = biological target: T1, recombinant human CD25 his tagged (human, UniProt P01589 22-240); experiment: SPR, Biacore 2000: IgG1 captured on the chip, rhCD25-his tag as analyte
T1 construct: also called rhCD25; rhCD25-his tag; not shown: His tag
T1 sequence: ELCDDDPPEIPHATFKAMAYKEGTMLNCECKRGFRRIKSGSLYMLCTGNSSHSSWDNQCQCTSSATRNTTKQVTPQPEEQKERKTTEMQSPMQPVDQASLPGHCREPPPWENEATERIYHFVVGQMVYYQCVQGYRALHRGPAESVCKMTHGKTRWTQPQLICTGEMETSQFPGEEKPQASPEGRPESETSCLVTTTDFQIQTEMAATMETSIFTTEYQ

[2] = biological target: T2, human CD25 antigen, Sino Biologicals cat no. 10165-H08H (~20% dimer) (human, UniProt P01589 22-213); experiment: SPR, Biacore T200, antibody captured by anti-human Fab on CM5, CD25 as analyte, Two State Reaction fit; column printed as 'Binding strength'; Sino Biological CD25 (~20% dimer), Two State Reaction fit
T2 construct: Bought protein; also called Sino biological (~20% dimer)
T2 sequence: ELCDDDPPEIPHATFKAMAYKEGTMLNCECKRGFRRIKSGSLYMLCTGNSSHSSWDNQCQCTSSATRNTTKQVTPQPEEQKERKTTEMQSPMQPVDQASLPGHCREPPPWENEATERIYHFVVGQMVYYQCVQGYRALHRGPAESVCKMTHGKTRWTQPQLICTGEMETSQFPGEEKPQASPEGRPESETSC
Source text: (§1) Binding of CD25 antibodies to human CD25 antigen was investigated by surface plasmon resonance using a BIACORE T200 instrument (GE Healthcare).
(§2) For calculation of KD and kinetic parameters Biacore provided fitting models were used to obtain optimal curve fitting results. The 1:1 Langmuir fit was used for P1AA5872 and the Two State Kinetic fitting for CD25 from Sino Biologicals and R&D Systems.

[3] = biological target: T1, recombinant human CD25 his tagged; experiment: SPR, Biacore 2000, IgG captured by anti-human antibody on CM5, rhCD25-His as analyte, two state reaction fit
Procedure: Anti-human antibody was initially immobilised across all flow cells in analysis buffer (pH 7.4, 10 mM HEPES, 150 mM NaCl, 3 mM EDTA, 0.05% Tween 20) to an RU of between 12,000-14,000 over 10 minutes. […] Dissociation was performed in analysis buffer over 10 minutes. Regeneration steps between sample concentrations were performed in 10 mM Glycin pH1.7 for 10 minutes. A flow rate of 25 μl/min was maintained throughout the process. Kinetics data were fit using a global two state reaction conformational change analysis software provided by Biacore with reference subtraction.

[4] = biological target: T3, human CD25 expressed on cells (human, UniProt P01589 22-272); experiment: flow cytometry on CD3/CD28 bead activated human Pan T cells, gated on CD8+ T cells
T3 construct: Endogenous CD25 on human cell lines and primary cells
T3 sequence: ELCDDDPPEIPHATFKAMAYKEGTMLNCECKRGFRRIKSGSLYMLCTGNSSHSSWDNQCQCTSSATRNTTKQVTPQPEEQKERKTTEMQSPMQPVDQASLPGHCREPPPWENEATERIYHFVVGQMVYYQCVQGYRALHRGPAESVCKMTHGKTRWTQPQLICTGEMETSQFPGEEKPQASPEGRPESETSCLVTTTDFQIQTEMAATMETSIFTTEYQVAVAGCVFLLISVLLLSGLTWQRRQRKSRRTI
Procedure: (§3) Binding to CD25 expressing activated human and Cynomolgus monkey PMBC was examined by staining test articles (anti-CD25 primary antibodies) with 20 μg/ml antibodies followed by semi-log dilution series (7-point) for 30 minutes on ice. This was followed by staining with a secondary antibody (rabbit anti-human Fcg F(ab′)2-(Jackson ImmunoResearch)) concentration of 5 μg/ml for 30 minutes on ice. All samples were stained in triplicates. To minimize cross-linking induced cell death mediated by binding of the secondary antibody, cell lines were examined in staining cohorts of 4 test articles at a time. Live lymphocytes were gated using FSC vs SSC parameters by flow cytometry during sample acquisition. Mean fluorescence intensity (MFI) of gated CD4⁺ and CD8⁺ T cell subsets were plotted on an XY chart, graphing MFI against the log of the concentration, and the data fit to a non-linear regression curve from which the EC50 was calculated.

[5] = biological target: T4, human CD25 antigen, R&D Systems cat no. 223-2A/CF (~10% dimer) (human, UniProt P01589 22-213, limits assumed); experiment: SPR, Biacore T200, antibody captured by anti-human Fab on CM5, CD25 as analyte, Two State Reaction fit; column printed as 'Binding strength'
T4 construct: Bought protein; also called R&D Systems (~10% dimer)
T4 sequence: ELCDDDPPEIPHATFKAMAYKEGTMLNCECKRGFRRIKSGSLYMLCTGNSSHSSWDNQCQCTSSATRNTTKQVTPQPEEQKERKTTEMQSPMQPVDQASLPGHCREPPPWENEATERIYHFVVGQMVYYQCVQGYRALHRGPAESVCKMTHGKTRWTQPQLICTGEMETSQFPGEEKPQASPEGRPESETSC
Source text: as §1, §2

[6] = biological target: T3, human CD25 expressed on cells; experiment: flow cytometry on CD3/CD28 bead activated human Pan T cells, gated on CD4+ T cells
Procedure: as §3

[7] = biological target: T1, recombinant human CD25 his tagged; experiment: BLI, ForteBio Octet Red96, IgG on AHC sensors, rhCD25-His in solution, global 1:1 fit
Procedure: Sensors were equilibrated off-line in assay buffer for 10 min and then monitored on-line for 60 seconds for baseline establishment. […] Then, 1:3 serial dilutions (from 1 uM to 4 nM) of recombinant human CD25 HIS tagged was associated to the loaded IgG for 10 min. Afterwards they were transferred to assay buffer for 6.6 min for off-rate measurement. Kinetics data were fit using a global 1:1 binding model in the ForteBio Data Analysis Software 9.0 with reference subtraction.

[8] = biological target: T5, inhouse produced monomeric human CD25 antigen (P1AA5872) (human, UniProt P01589 22-240, limits assumed); experiment: SPR, Biacore T200, antibody captured by anti-human Fab on CM5, monomeric CD25 as analyte, 1:1 Langmuir fit; column printed as 'Binding strength'
T5 construct: also called Inhouse (0% dimer)
T5 sequence: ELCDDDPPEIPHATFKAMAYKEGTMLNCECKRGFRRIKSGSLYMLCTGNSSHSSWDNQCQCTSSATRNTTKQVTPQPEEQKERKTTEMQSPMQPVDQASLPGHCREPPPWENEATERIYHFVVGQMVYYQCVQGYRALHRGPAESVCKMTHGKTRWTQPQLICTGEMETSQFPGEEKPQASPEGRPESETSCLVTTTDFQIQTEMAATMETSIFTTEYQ
Source text: as §1, §2

[9] = biological target: T1, recombinant human CD25 his tagged; experiment: SPR, Biacore 2000: IgG1 captured on the chip, rhCD25-his tag as analyte; remark: listed apart in the source
[10] = biological target: T1, recombinant human CD25 his tagged; experiment: as above; remark: listed apart in the source
[11] = biological target: T1, recombinant human CD25 his tagged; experiment: as above; remark: listed apart in the source
[12] = biological target: T1, recombinant human CD25 his tagged; experiment: as above; remark: listed apart in the source

B1: aCD25-a-646-m2 (antibody, IgG1, V domains shown)
VH: QVQLVESGGGLVQPGGSLRLSCAASGFTFPSYGMHWVRQAPGKGLEWVAVIWYDAINKYYADSVKGRFTISRDNSKNTLYLQMNSLRAEDTAVYYCARDLGYGDYAAHDYWGQGTLVTVSS
VL: DIQMTQSPSTLSASVGDRVTITCRASQSISSWLAWYQQKPGKAPKLLIYKASSLESGVPSRFSGSGSGTEFTLTISSLQPDDFATYYCQQHNTHPYTFGGGTKVEIK
- Kd [1]: 0.36 nM

B2: aCD25-a-646 (antibody, V domains shown)
VH: QVQLVESGGGVVQPGRSLRLSCAASGFTFSSYGMHWVRQAPGKGLEWVAVIWYDGSNKGYADSVKGRFTISRDNSKNTLYLQMNSLRAEDTAVYYCARDLGYGDYAAHDYWGQGTLVTVSS
VL: DIQMTQSPSTLSASVGDRVTITCRASQSISSWLAWYQQKPGKAPKLLIYKASSLESGVPSRFSGSGSGTEFTLTISSLQPDDFATYYCQQHNTHPYTFGGGTKVEIK
notes: also called parental clone
- Kd [2]: 8.5 nM
- Kd [3]: 3.8 nM
- EC50 (read off the curve) [4]: ~0.2 µg/mL
- Kd [5]: 15 nM
- EC50 (read off the curve) [6]: ~0.2 µg/mL
- Kd [7]: 3.65 nM
- Kd [8]: 77 nM

B5: aCD25-a-646-m1 (antibody, IgG1, V domains shown)
VH: EVQLVESGGGLVKPGGSLRLSCAASGFTFASYGMHWVRQAPGKGLEWVAVIWYDASTKYYADSVKGRFTISRDNSKNTLYLQMNSLRAEDTAVYYCARDLGYGDYAAHDYWGQGTLVTVSS
VL: DIQMTQSPSTLSASVGDRVTITCRASQSISSWLAWYQQKPGKAPKLLIYKASSLESGVPSRFSGSGSGTEFTLTISSLQPDDFATYYCQQHNTHPYTFGGGTKVEIK
- Kd [11]: 1.43 nM

Continued, values first:

- Kd [9]: 0.31 nM
B3: aCD25-a-646-m5 (antibody, IgG1, V domains shown)
VH: EVQLLESGGGLVQPGGSLRLSCAASGFTFPSYGMHWVRQAPGKGLEWVAVIWYDALNKYYADSVKGRFTISRDNSKNTLYLQMNSLRAEDTAVYYCARDLGYGDYAAHDYWGQGTLVTVSS
VL: DIQMTQSPSTLSASVGDRVTITCRASQSISSWLAWYQQKPGKAPKLLIYKASSLESGVPSRFSGSGSGTEFTLTISSLQPDDFATYYCQQHNTHPYTFGGGTKVEIK

- Kd [10]: 0.42 nM
B4: aCD25-a-646-m3 (antibody, IgG1, V domains shown)
VH: QVQLVESGGGVVQPGRSLRLSCAASGFTFPSYGMHWVRQAPGKGLEWVAVIWYDAVNKYYADSVKGRFTISRDNSKNTLYLQMNSLRAEDTAVYYCARDLGYGDYAAHDYWGQGTLVTVSS
VL: DIQMTQSPSTLSASVGDRVTITCRASQSISSWLAWYQQKPGKAPKLLIYKASSLESGVPSRFSGSGSGTEFTLTISSLQPDDFATYYCQQHNTHPYTFGGGTKVEIK

- Kd [12]: 0.56 nM
B6: aCD25-a-646-m4 (antibody, IgG1, V domains shown)
VH: QVQLVESGGGVVQPGRSLRLSCAASGFTFPSYGMHWVRQAPGKGLEWVAVIWYDASTKYYADSVKGRFTISRDNSKNTLYLQMNSLRAEDTAVYYCARDLGYGDYAAHDYWGQGTLVTVSS
VL: DIQMTQSPSTLSASVGDRVTITCRASQSISSWLAWYQQKPGKAPKLLIYKASSLESGVPSRFSGSGSGTEFTLTISSLQPDDFATYYCQQHNTHPYTFGGGTKVEIK
